Patent publication US20160136231A1 (ROGNE BIOSCIENCE, published 2016)

T1: human ChemR23, cAMP Hunter cell line (human, UniProt Q99788 1-373)
T1 sequence (looked up): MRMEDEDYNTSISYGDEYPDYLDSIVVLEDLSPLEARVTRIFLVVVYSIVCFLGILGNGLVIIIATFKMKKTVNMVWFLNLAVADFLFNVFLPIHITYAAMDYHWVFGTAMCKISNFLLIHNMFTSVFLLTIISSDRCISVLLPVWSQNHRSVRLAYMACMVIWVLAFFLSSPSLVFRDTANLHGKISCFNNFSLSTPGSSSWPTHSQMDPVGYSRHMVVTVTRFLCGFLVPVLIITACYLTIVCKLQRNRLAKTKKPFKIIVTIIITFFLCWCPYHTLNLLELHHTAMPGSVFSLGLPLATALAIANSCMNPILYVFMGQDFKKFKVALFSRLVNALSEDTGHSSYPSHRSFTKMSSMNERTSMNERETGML

T2: mouse ChemR23, PathHunter β-Arrestin cell line (mouse, UniProt P97468 1-371)
T2 sequence (P97468 whole entry, looked up): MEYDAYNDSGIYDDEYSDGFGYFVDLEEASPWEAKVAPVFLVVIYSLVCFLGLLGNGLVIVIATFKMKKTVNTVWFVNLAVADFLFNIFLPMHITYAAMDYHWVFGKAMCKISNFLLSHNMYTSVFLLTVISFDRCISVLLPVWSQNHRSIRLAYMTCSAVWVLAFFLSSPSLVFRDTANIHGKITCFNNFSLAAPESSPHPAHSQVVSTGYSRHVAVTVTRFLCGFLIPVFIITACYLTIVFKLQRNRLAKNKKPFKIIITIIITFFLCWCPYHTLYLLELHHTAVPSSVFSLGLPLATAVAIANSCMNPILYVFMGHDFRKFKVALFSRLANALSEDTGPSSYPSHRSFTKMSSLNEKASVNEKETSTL

T3: GPR1, PathHunter β-Arrestin CHO cell line (human, UniProt P46091 1-355)
T3 sequence (P46091 whole entry, species assumed, looked up): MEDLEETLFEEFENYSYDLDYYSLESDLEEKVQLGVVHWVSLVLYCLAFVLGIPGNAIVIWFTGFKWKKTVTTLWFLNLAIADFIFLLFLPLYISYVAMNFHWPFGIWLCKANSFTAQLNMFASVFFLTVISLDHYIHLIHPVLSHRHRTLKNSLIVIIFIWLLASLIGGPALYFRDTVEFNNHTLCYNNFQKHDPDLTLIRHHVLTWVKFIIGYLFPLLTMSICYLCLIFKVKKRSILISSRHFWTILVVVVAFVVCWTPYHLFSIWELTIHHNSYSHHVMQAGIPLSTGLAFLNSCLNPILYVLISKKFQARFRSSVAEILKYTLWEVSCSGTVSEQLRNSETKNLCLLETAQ


Legend:
Test in all cases: cell-based or functional assay
[1] = molecular target: T1, human ChemR23, cAMP Hunter cell line
[2] = molecular target: T2, mouse ChemR23, PathHunter β-Arrestin …
[3] = molecular target: T3, GPR1, PathHunter β-Arrestin CHO cell …
[4] = molecular target: human ChemR23 (CMKLR1), PathHunter β-Arrestin CHO cell line (human, UniProt Q99788 1-373)

Binder | IC50, cAMP, Antagonist (RC50, uM) [1] | EC50, Arrestin, Agonist (RC50, uM) [2] | IC50, Arrestin, Antagonist (RC50, uM) [2] | % Max Activity, PathHunter β-Arrestin agonist [3] | % Max Inhibition, PathHunter β-Arrestin antagonist against chemerin at EC80 [3] | [EC50] (M), PathHunter β-Arrestin agonist [3] | [IC50] (M), PathHunter β-Arrestin antagonist against chemerin at EC80 [3] | % Max Activity, PathHunter β-Arrestin agonist [4] | % Max Inhibition, PathHunter β-Arrestin antagonist against chemerin at EC80 [4] | [EC50] (M), PathHunter β-Arrestin agonist [4] | [IC50] (M), PathHunter β-Arrestin antagonist against chemerin at EC80 [4]
AGEDPHGYFLPGQFA [mouse chemerin C15 peptide] | > 10 µM | > 10 µM | > 10 µM | 27.8% | 0% | 3.7e-06 M | > 1e-05 M | 0.4% | 0% | > 1e-05 M | > 1e-05 M
AGEDPHSFYFPGQFA [human chemerin C15 peptide] | > 10 µM | > 10 µM | 9.66 µM | 10.6% | 0% | 0.017 M | > 1e-05 M | 0.8% | 0% | > 1e-05 M | > 1e-05 M
AGEDPHSFYFPGQFAF [human chemerin C16 peptide] | > 10 µM | 0.0385 µM | > 10 µM | 87.9% | 0% | 2.1e-09 M | > 1e-05 M | 98.6% | 0% | 2.9e-08 M | > 1e-05 M
AGEDPHSFYFPGQFAFS [human chemerin C17 peptide] | > 10 µM | 0.84 µM | > 10 µM | 80.9% | 0% | 1.5e-09 M | > 1e-05 M | 67.5% | 0% | 4.8e-07 M | > 1e-05 M
